Laboratory results published in PMC3654831 (Cell reports, 2012).
“And” between values parts separate entries of the source, which are not always exact repeats. Identical values can stand only once.

B1: Sgt2 N-terminal homodimerization domain (Sgt2-N), wild type (domain or fragment, S. cerevisiae)
chain: SASKEEIAALIVNYFSSIVEKKEISEDGADSLNVAMDCISEAFGFEREAVSGILGKSEFKGQHLADILNSA

Tests used:
[1] = molecular target: T1, Get5 ubiquitin-like domain (Get5-UBL), wild type (S. cerevisiae, UniProt Q12285 74-151); assay: NMR exchange spectroscopy
T1 sequence: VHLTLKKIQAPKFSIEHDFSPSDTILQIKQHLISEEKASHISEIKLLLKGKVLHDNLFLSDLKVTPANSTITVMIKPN

[2] = molecular target: T2, polyhistidine-tagged Get5-UBL, wild type (S. cerevisiae, UniProt Q12285 74-151); assay: SPR
T2 sequence: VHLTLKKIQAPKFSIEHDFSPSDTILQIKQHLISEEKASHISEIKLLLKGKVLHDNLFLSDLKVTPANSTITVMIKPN

solution NMR structure = molecular target: the molecule itself; assay: solution NMR structure
[3] = molecular target: T1, Get5 ubiquitin-like domain (Get5-UBL), …; assay: NMR exchange spectroscopy; remark: listed apart in the source
[4] = molecular target: T3, polyhistidine-tagged Get5-UBL-C (S. cerevisiae); assay: SPR
T3 sequence (Q12285 whole entry, looked up): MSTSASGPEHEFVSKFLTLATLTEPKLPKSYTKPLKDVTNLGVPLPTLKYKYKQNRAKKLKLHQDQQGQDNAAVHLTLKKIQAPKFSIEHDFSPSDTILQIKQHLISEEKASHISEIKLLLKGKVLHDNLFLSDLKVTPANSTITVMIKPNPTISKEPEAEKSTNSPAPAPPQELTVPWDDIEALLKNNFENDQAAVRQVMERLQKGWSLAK

[5] = molecular target: T1, Get5 ubiquitin-like domain (Get5-UBL), …; assay: ITC
[6] = molecular target: B1; assay: ITC

B1
koff [1]: 7.5 s⁻¹ and 5.7 s⁻¹
Kd [2]: 3.78 µM
stoichiometry N (solution NMR structure): 2
kon [3]: ~2e+08 M⁻¹ s⁻¹
Kd [4]: 0.749 µM
kon [4]: 1.06e+07 M⁻¹ s⁻¹

B2: Sgt2-N D31A (domain or fragment, S. cerevisiae)
chain: SASKEEIAALIVNYFSSIVEKKEISEDGAASLNVAMDCISEAFGFEREAVSGILGKSEFKGQHLADILNSA
binding result [2]: binds

B3: Sgt2-N D28A (domain or fragment, S. cerevisiae)
chain: SASKEEIAALIVNYFSSIVEKKEISEAGADSLNVAMDCISEAFGFEREAVSGILGKSEFKGQHLADILNSA
binding result [2]: binds

B4: Sgt2-N V35A (domain or fragment, S. cerevisiae)
chain: SASKEEIAALIVNYFSSIVEKKEISEDGADSLNAAMDCISEAFGFEREAVSGILGKSEFKGQHLADILNSA
fold lower affinity than wild type [5]: > 100 fold

B5: Sgt2-N C39V (domain or fragment, S. cerevisiae)
chain: SASKEEIAALIVNYFSSIVEKKEISEDGADSLNVAMDVISEAFGFEREAVSGILGKSEFKGQHLADILNSA
fold lower affinity than wild type [5]: 100 fold

B6: Sgt2-N C39S (domain or fragment, S. cerevisiae)
chain: SASKEEIAALIVNYFSSIVEKKEISEDGADSLNVAMDSISEAFGFEREAVSGILGKSEFKGQHLADILNSA
fold lower affinity than wild type [5]: ~700 fold

B7: Get5-UBL L120A (domain or fragment, S. cerevisiae)
chain: VHLTLKKIQAPKFSIEHDFSPSDTILQIKQHLISEEKASHISEIKLALKGKVLHDNLFLSDLKVTPANSTITVMIKPN
fold lower affinity than wild type [6]: 1000 fold
